In paper PMC3411398, “Quaternary structures of recombinant, cellular, and serum forms of Thymidine Kinase 1 from dogs and humans” (BMC Biochemistry, 2012):
Where “and” joins values, the source holds several entries; their conditions need not be identical. Equal values may be shown once.

What was measured:
[1] = target: cellular (native) canine TK1 from MDCK cells (dog (endogenous in MDCK)); assay: SEC; Superose 12, 0.01 M HEPES/KOH pH 7.6, 0.15 M NH4Cl, 0.02% NaN3; crude cell extracts (MDCK, CEM), untreated or treated with DTE before chromatography; fractions read by TK1 activity and western blot
[2] = target: canine serum TK1 (dog (endogenous in serum)); assay: SEC; Superose 12, 0.01 M HEPES/KOH pH 7.6, 0.15 M NH4Cl, 0.02% NaN3; sera diluted 1:1, untreated or pre-treated with 20 mM DTE; fractions read by TK1 activity and immunoaffinity capture with western blot
[3] = target: the molecule itself; assay: as above
[4] = target: the molecule itself; assay: SEC; Superose 12, 0.01 M HEPES/KOH pH 7.6, 0.15 M NH4Cl, 0.02% NaN3, no reducing agent in the buffer; 4 ug of freshly isolated recombinant TK1, untreated or pre-incubated with 20 mM DTE for 30 min on ice; fractions read by TK1 activity and western blot
[5] = target: the molecule itself; assay: SEC; Superose 12, 0.01 M HEPES/KOH pH 7.6, 0.15 M NH4Cl, 0.02% NaN3; crude cell extracts (MDCK, CEM), untreated or treated with DTE before chromatography; fractions read by TK1 activity and western blot

## cellular (native) canine TK1 from MDCK cells (enzyme)
[1]
  stoichiometry N: 2 and 4

## canine serum TK1 (enzyme)
[2]
  stoichiometry N: 2 and 4

B1: human serum TK1 (enzyme, human (endogenous in serum), UniProt P04183 1-234, looked up)
chain: MSCINLPTVLPGSPSKTRGQIQVILGPMFSGKSTELMRRVRRFQIAQYKCLVIKYAKDTRYSSSFCTHDRNTMEALPACLLRDVAQEALGVAVIGIDEGQFFPDIVEFCEAMANAGKTVIVAALDGTFQRKPFGAILNLVPLAESVVKLTAVCMECFREAAYTKRLGTEKEVEVIGGADKYHSVCRLCYFKKASGQPAGPDNKENCPVPGKPGEAVAARKLFAPQQILQCSPAN
notes: thymidine kinase 1, human, serum form; polypeptide of apparent MW 25 kDa on western blot; source: endogenous, pooled sera from human patients with acute lymphocytic leukemia
[3]
  stoichiometry N: 2 and 4

B2: recombinant human thymidine kinase 1 (enzyme, UniProt P04183 1-234, looked up)
chain: MSCINLPTVLPGSPSKTRGQIQVILGPMFSGKSTELMRRVRRFQIAQYKCLVIKYAKDTRYSSSFCTHDRNTMEALPACLLRDVAQEALGVAVIGIDEGQFFPDIVEFCEAMANAGKTVIVAALDGTFQRKPFGAILNLVPLAESVVKLTAVCMECFREAAYTKRLGTEKEVEVIGGADKYHSVCRLCYFKKASGQPAGPDNKENCPVPGKPGEAVAARKLFAPQQILQCSPAN
notes: thymidine kinase 1, human, full-length cDNA; vector pEXP-5NT/TOPO; also called hTK1; human TK1
[4]
  stoichiometry N: 2 and 4

B3: cellular (native) human TK1 from CEM cells (enzyme, human (endogenous in CCRF-CEM), UniProt P04183 1-234, looked up)
chain: MSCINLPTVLPGSPSKTRGQIQVILGPMFSGKSTELMRRVRRFQIAQYKCLVIKYAKDTRYSSSFCTHDRNTMEALPACLLRDVAQEALGVAVIGIDEGQFFPDIVEFCEAMANAGKTVIVAALDGTFQRKPFGAILNLVPLAESVVKLTAVCMECFREAAYTKRLGTEKEVEVIGGADKYHSVCRLCYFKKASGQPAGPDNKENCPVPGKPGEAVAARKLFAPQQILQCSPAN
notes: thymidine kinase 1, human, endogenous in CCRF-CEM cells; 25 kDa band on western blot; also called cytosolic human TK1; source: endogenous, crude CCRF-CEM cell extract
[5]
  stoichiometry N: 2 and 4
